The values that follow come from article PMC3912023.

The target of test [1] is CorA, endogenously expressed, purified from Methylomicrobium album BG8 (Methylomicrobium album BG8). In words: SEC; calibrated Superdex 75 16/60 gel filtration, 40 mM Tris-HCl pH 8.0, 0.5 M NaCl; data not shown. For orientation: SEC sorts molecules by how far they enter the pores of the column.
In test [2] the target is Recombinant CorA (without the predicted signal peptide) (Methylomicrobium album BG8). In words: SEC; calibrated Superdex 75 16/60 gel filtration, 20 mM Tris-HCl pH 7.5, 1 mM CaCl2; data not shown.

As usually defined, the stoichiometry N is the number of molecules, sites or subunits per partner or assembly. “CorA, endogenously expressed, purified from Methylomicrobium album BG8 (natural protein)” had a stoichiometry N in test [1] of 2.
With “Recombinant CorA (without the predicted signal peptide) (natural protein)”, in test [2], the stoichiometry N is 2.
